Paper PMC5286520

Tests used:
Conditions in all cases: modification not given
[1] = biological target: V2R (Homo sapiens), P30518; assay: radioligand
[2] = biological target: T1, OTR (Homo sapiens), P30559; assay: radioligand displacement
T1 chain: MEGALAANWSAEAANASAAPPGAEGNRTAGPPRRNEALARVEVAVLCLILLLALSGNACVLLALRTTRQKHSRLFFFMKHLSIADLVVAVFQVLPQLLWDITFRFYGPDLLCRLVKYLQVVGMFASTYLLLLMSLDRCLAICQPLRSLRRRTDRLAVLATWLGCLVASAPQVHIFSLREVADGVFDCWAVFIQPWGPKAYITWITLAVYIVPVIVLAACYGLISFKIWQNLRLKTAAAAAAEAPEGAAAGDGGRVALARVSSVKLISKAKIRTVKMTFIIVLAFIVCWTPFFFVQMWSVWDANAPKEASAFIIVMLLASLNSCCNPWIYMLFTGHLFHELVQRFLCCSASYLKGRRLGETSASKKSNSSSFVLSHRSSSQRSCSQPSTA

[3] = biological target: V1aR (Homo sapiens), P37288; assay: radioligand displacement
Sequence of V1aR (Homo sapiens), P37288 (P37288 whole entry): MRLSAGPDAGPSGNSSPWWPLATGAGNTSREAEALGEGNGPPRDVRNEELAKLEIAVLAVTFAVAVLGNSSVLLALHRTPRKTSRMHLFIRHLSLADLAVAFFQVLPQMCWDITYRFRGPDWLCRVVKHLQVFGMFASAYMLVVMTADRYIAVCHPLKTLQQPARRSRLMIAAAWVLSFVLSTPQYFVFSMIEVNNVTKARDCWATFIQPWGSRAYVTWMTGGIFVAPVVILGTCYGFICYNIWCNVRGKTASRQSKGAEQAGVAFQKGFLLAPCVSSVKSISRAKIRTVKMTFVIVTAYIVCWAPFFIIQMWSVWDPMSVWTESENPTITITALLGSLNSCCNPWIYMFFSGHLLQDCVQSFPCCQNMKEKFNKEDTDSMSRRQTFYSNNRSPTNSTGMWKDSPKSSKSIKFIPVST

[4] = biological target: T2, V1bR (Homo sapiens), P47901; assay: radioligand displacement
T2 chain: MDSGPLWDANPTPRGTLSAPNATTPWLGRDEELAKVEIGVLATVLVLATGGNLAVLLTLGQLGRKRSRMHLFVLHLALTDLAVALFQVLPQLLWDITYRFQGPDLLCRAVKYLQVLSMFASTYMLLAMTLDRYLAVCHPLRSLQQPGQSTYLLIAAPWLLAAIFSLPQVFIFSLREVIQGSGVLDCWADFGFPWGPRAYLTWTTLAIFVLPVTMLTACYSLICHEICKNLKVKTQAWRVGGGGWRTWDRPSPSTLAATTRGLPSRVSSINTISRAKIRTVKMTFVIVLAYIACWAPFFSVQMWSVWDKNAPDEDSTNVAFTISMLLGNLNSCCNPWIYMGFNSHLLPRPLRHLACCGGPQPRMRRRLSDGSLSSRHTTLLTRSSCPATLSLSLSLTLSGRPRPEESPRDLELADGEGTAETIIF

B1: inotocin (peptide)
chain: CLITNCPRG
Q: With B1 as the binder, how does the Ki [1] read?
A: The Ki was over 100000 nM.

Q: And the Ki [2]?
A: The Ki was 62 nM.

Q: What about the Ki [3] of the same binder?
A: Its Ki is 11 nM.

Q: And the Ki [4]?
A: The Ki was 12 nM.
